Data reported in the supplement of paper PMC10567573.
± gives the standard deviation.

Assay: protein stability index of a GFP-peptide fusion (GPS, HEK-293T) (PSI 1-6); higher = more stable
[1] = treatment: DMSO, c terminus: a fixed tail appended
[2] = treatment: MLN4924 1 uM, 8 h, c terminus: a fixed tail appended
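Also: 24-mer peptide tiles fused after GFP, lentivirally expressed, FACS-sorted into six equal bins by GFP/DsRed ratio, decoded by Illumina sequencing, PSI is the read-weighted mean bin number.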

Sequence	protein stability index [1]	protein stability index [2]	protein stability index (treatment: DMSO, c terminus: native)	protein stability index (treatment: MLN4924 1 uM, 8 h, c terminus: native)
EIRRKEKEAVLAMEKKSKPKNSVW [RIT1]	4.12 ± 0.17	4.29 ± 0.38		
DQEIKFFRCLFEAEITQIQSHISD [KRT71]	2.25 ± 0.36	2.34 ± 0.77		
SRSLLTGGYNLASVSVWDLAAPSL [TLE6]	2.38 ± 0.27	2.29 ± 0.14		
SGDFRSSTEDMERALSEYLAVFAR [P3H4]	3.44 ± 0.23	4.11 ± 0.17		
LNVELDPEIQKVRAQEREQIKALN [KRT71]	4.74 ± 0.13	4.75 ± 0.11		
ADYFATFVQREEQLQFLIRYHRFI [CDS1]	2.2 ± 0.54	2.37 ± 0.27		
PVPVIVSNFNYFYHRETEGEEQAQ [KCNA1]	3.62 ± 0.25	3.81 ± 0.4		
KRIAHFDLKPENIMLLDKNVPNPR [DAPK3]	3.68 ± 0.44	3.25 ± 0.77		
QILEGELFDFDLEVKPVLEVLVGK [RSPH3]	2.13 ± 0.58	2.37 ± 0.67		
SPELGRPHDRSQGDWAPPPEGGME [ZNF263]	5.18 ± 0.21	5.41 ± 0.25		
NTLVTKTMEDTLMTVKQYEAARLE [ARFIP2]	4.19 ± 0.3	4.55 ± 0.23		
GSMKIKSSWDIDGRATKRRKKSGD [FBXO34]		4.34 ± 0.81		
PDEEPMHYGNIMYDRRVIRGNTYA [RSPH3]	3.5 ± 0.27	3.41 ± 0.33		
ICPLKERRFGAVACGVAMELYVFG [GAN]	2.36 ± 0.53	2.96 ± 1.1		
TTKFTGSHKERFDPSGKGKGKAGR [TPPP]	4.83 ± 0.2	4.93 ± 0.32		
IQRPANAIKEMIENCLDAKSTSIQ [MLH1]	4.16 ± 0.16			
NESWIKSHFSRLSEEKLALDNNAS [C10orf62]	4.11 ± 0.14	4.29 ± 0.24		
VHPTKHEVHFLHEESILERVQQHI [MLH1]	3.18 ± 0.16	3.28 ± 0.15		
SAENGLEKSGFSQHQNKSPPKVKA [DLC1]	5.14 ± 0.44	5.1 ± 0.45		
TESYIARPDGDCASSLNGGNIKGI [ZC2HC1A]	4.09 ± 0.047	4.24 ± 0.21		
VPYCERDYEKMFGTKCHGCDFKID [PDLIM7]	3.2 ± 0.55	3.46 ± 0.22		
EKNIILEEKIQVLQQQNEDLKARI [MTUS2]	4.03 ± 0.24	4.04 ± 0.23		

Sequence	protein stability index [1]	protein stability index [2]	protein stability index (treatment: DMSO, c terminus: native)	protein stability index (treatment: MLN4924 1 uM, 8 h, c terminus: native)
TPEKKAEEERDEEEDKRRKGEEVT [EPB41L3]	5.74 ± 0.29	5.75 ± 0.27		
QARKALFEKWEQETAAGKGKGEAR [SMTNL2]	4.836 ± 0.03	4.84 ± 0.29		
TKKKGVKRPARLHTKPSQAPAVEV [NOP53]	4.36 ± 0.2	4.411 ± 0.021		
PWEPPVLPILTWPVLQSRTGLVYD [HDAC6]	3.46 ± 0.51	3.35 ± 0.23		
VDQKLELNIVPRTKVVYLASETFN [PI4K2A]	2.38 ± 0.23	2.51 ± 0.25		
MAHSKTRTNDGKITYPPGVKEISD [PDS5B]	4.59 ± 0.17	4.61 ± 0.21		
RETLIIAVLVSASIANLWLWMNQ [FATE1]			2.54 ± 0.14	2.31 ± 0.21
TPDIKSHYAFRIFDFDDDGTLNRE [CIB1]	3.55 ± 0.15	3.44 ± 0.21		
LGPLLSEPLVLYNQNLSNRPSFNR [MYOZ1]	2.62 ± 0.13	2.95 ± 0.49		
DVKTNVQLLKGRVDNISTLDSEIK [CD207]	3.74 ± 0.48	4.01 ± 0.3		
MAGTNALLMLENFIDGKFLPCSSY [ALDH8A1]	2.19 ± 0.35	2.12 ± 0.26		
VRRRYSDFEWLRSELERESKVVVP [SNX3]	2.17 ± 0.12	2.33 ± 0.17		
AGSIGGLFFAVGIAQYALLGYFIR [SLC22A15]	3.35 ± 0.72	3.4 ± 0.23		
SDAIRVVNAVLTQIDQIKRHSNVV [TRIP13]	2.33 ± 0.2	2.35 ± 0.21		
PGSTSPLETSGNPNGRYGSGYLLA [SLC6A17]	3.44 ± 0.19	3.72 ± 0.33		
PGQGGPASTPAQTAAGGQGGPGGP [NR2F2]	5.25 ± 0.21	5.33 ± 0.37		
ASLPSQKYPGPQAEGDSEGLSQGL [CHGA]	5.2 ± 0.28	5.25 ± 0.17		
EKALKKNVKLQELINHKKAEDTEK [CEP70]	4.85 ± 0.34	5.07 ± 0.2		
IYAMKILRKSDMLEKEQVAHIRAE [STK38L]	2.33 ± 0.26	2.48 ± 0.22		
YLDVDLTLTREQTERLSHQITSRV [RTN2]	3.17 ± 0.18	3.23 ± 0.34		
CRCKNSNTVYCKLESCPSRGQGKP [SPRY1]	3.66 ± 0.59	3.77 ± 0.29		
VATGSQQSLAQPLPGNTTEATPRS	5.42 ± 0.44	5.28 ± 0.43		

Sequence	protein stability index [1]	protein stability index [2]	protein stability index (treatment: DMSO, c terminus: native)	protein stability index (treatment: MLN4924 1 uM, 8 h, c terminus: native)
SIGALISKAHLEKVRSYVKRALAE [ALDH8A1]	2.42 ± 0.51	2.6 ± 1.1		
YSSSRDGYGGSRDSYSSSRSDLYS [RBMX]	3.51 ± 0.14	3.79 ± 0.21		
KNGRVDSEDRRSRHCPYLDTINRS [USP39]	3.99 ± 0.26	4.2 ± 0.34		
GFKHRLWVYSGRRGVHCWVCDESV [PRIM1]	2.81 ± 1.4	2.31 ± 0.59		
GRGSLSSGGQTSWDSGCLAPPSTR [PLEKHN1]	4.44 ± 0.24	4.15 ± 0.35		
GGTPIRGALQIEQSEESDQGKYEC [PTPRD]	5.57 ± 0.38	5.4 ± 0.31		
LDEALKHVKETQPPETVQNWIELL [GOLPH3]	3.94 ± 0.18	4.17 ± 0.24		
FCGAPPVTPIIVLSIINFFERLCL [PHTF1]	2.87 ± 0.47	2.5 ± 0.46		
VQGGSEAWGPGTLAAAPEGLEDAG [TEX19]	5.12 ± 0.36	5.41 ± 0.2		
AVDFTQEEWGQLDPTQRILYRDVM [ZNF8]	3.75 ± 0.18	3.88 ± 0.35		
TNDVETARCTAGTLHNLSHHREGL [CTNNB1]	3.89 ± 0.19	4.07 ± 0.18		
DAVPPGMESLISAPLVKTLEKEEE [CDC25B]	5.44 ± 0.21	5.58 ± 0.33		
NIRQKVKELVEFAQDDDRLREERK [CLINT1]	4.55 ± 0.17	5.01 ± 0.19		
ITTVSKAKGASLFTCDLQHTETGE [VPS39]	4.06 ± 0.25	3.99 ± 0.21		
CEGPPRGKGFRDRNVTGTPLTGDK [ADAMTSL2]	5.07 ± 0.36	5.17 ± 0.16		
CLSFQPECSMKLTPLVLEVFGNEI [VDR]	2.27 ± 0.38	2.52 ± 0.19		
INGLQAWLLTHLLWFANAHLLSWF [DHCR7]	3.18 ± 0.3	3.07 ± 0.44		
TLIREKSFGACLREETPRMPSWAS [ELOA2]	2.14 ± 0.13	2.67 ± 0.71		
SWMCTRSGNMLGRHFFTSWASCLQ [WDFY1]	1.86 ± 0.32	2.33 ± 0.22		
WVCLAYFTSGFNAAALDYEADGST [SPACA3]	2.9 ± 0.46	2.91 ± 0.25		
GCSLHEEDTQRHETYHQQGQCQVL [TCAP]	4.35 ± 0.14	4.32 ± 0.41		
QKGIPPSLRGRAWQYLSGGKVKLQ [TBC1D10A]	2.8 ± 0.13	3 ± 0.21		
